# Test results: article PMC12148503, “Molecular Basis of Interchain Disulfide Bond Formation in BMP-9 and BMP-10” (Journal of molecular biology, 2025)
# B1: Pro-(X)-BMP-9 [human] / itself (parent)
# chain: KPLQSWGRGSAGGNAHSPLGVPGGGLPEHTFNLKMFLENVKVDFLRSLNLSGVPSQDKTRVEPPQYMIDLYNRYTSDKSTTPASNIVRSFSMEDAISITATEDFPFQKHILLFNISIPRHEQITRAELRLYVSCQNHVDPSHDLKGSVVIYDVLDGTDAWDSATETKTFLVSQDIQDEGWETLEVSSAVKRWVRSDSTKSKNKLEVTVESHRKGCDTLDISVPPGSRNLPFFVVFSNDHSSGTKETRLELREMISHEQESVLKKLSKDGSTEAGESSHEEDTDGHVAAGSTLAIEGRSSGAGSHCQKTSLRVNFEDIGWDSWIIAPKEYEAYECKGGCFFPLADDVTPTKHAIVQTLVHLKFPTKVGKACCVPTKLSPISVLYKDDMGVPTLKYHYEGMSVAECGCR
# Variants of: B1
# Assay: SDS-PAGE densitometry
# Settings: with itself; IMAC column purified Pro-BMP-9
row,screen value,Variant
1,1.29,chain 1 G367S
2,0.7,chain 1 K335R
3,3.24,chain 1 K335R G367S
